The subject of one data set is hematopoiesis. Format: in vivo, mouse. How it is done: The mice received intravenous injection of 670 pmol/20 g miR-26a or control chimera daily for 3 days. 150 mg/kg 5-FU was injected on day 2 of the chimera treatment. FIG. 2A is a graph showing the numbers of white blood cells (WBC) 10 days after 5-FU treatment. Data (mean+s.d.) were pooled from two experiments, involving a total of 6 mice per group. FIG. 2B is a graph showing the number of bone marrow (BM) cells 10 days after 5-FU treatment. Data (mean+s.d.) were pooled from two experiments, involving a total of 6 mice per group. FIG. 2C is (left) a representative picture of LSK population 5 days after 5-FU treatment with or without miR-26a chimera treatment; and (right) a graph showing the percentages of LSK population. Data (mean+s.d.) were pooled from two experiments, involving a total of 6 mice per group. FIG. 2D is a series of graphs showing apoptosis. Left, representative picture of Annexin V^+ in LSK population 5 days after 5-FU treatment. Right, the percentages of Annexin V^+ in the LSK population. Data (mean+s.d.) were pooled from two experiments, involving a total of 6 mice per group. *P<0.05, **P<0.01. FIG. 2E is a picture showing a putative miR-26a target site in the 3′UTR of mouse Bak1 (SEQ ID NO:19). Base pairs CU-GA -UACUUGAA (SEQ ID NO:20) of the Bak Sequence and its complementary basepairs are the sites with highly probability preferential conservation between mammals. The miR-26a sequence depicted is SEQ ID NO:21. FIG. 2F is a graph showing relative luciferase activity of reporter constructs containing the wild-type or mutant (mut) 3′-UTR of mouse Bak1 in HEK293 cells co-transfected with either miR-26a precursor (OE), miR-26a TuD inhibitor (TuD), or negative control (ctrl). Data were pooled from two experiments. FIG. 2G is a graph showing relative expression level of Bak1 mRNA in LSK population 5 days after 5-FU treatment. Data (mean+s.d.) were pooled from two experiments, involving a total of 6 mice per group. FIG. 2H is a graph showing that targeted mutation of the Bak1 gene increased survival of LSK in BM at day 5 after 150 mg/kg 5-FU treatments. Data shown are percent of LSK in BM (n=3 for Bak1^+/+ mice and n=4 for Bak1^−/− mice). […] of Bak1^+/+ and Bak1^−/− LSK in BM. Data shown percent of untreated, after normalization using means of LSK % from BM of two untreated Bak1^+/+ and Bak1^−/− mice as 100%. FIG. 2J is a graph showing the numbers of WBC 10 days after 150 mg/kg 5-FU treatments between Bak1^−/− mice and wild type mice. Data (mean+s.d.) were pooled from two experiments, involving a total of 7 mice per group. *P<0.05, **P<0.01.
For xenograft models, the NSG mice and BALB/c mice were subcutaneously injected with 2×10^6 viable MDA-MB-231 cells and TUBO cells in their right hind limbs, respectively. After the tumor grew to 1 cm in diameter, mice were randomly divided into the groups for each treatment. For no treatment control, 100 μl saline with 1% mouse serum was intravenously injected through tail vein. […] Tumor sizes were measured in two dimensions every 3 days. Tumor volume (V) was calculated using the following formula: V=(½) S^2×L (S. the shortest dimension; L, the longest dimension). Animals were euthanized when the tumor size was over 2 cm diameters, tumor ulcerated, or became necrotic. For chimera treatment in normal mice, C57BL/6 mice were treated with miR-26a chimera (670 pmol/20 g) everyday for 3 days by intravenous injection. At day 2, 150 mg/kg 5-FU and/or 120 mg/kg carboplatin was injected together with the chimera. Peripheral bloods were collected at day 5 and day 10 after the 5-FU treatment. Complete blood counts were measured by Hemavet 950FS (Drew Scientific, Miami Lakes, Fla., USA).
For aptamer binding assay, streptavidin-APC (Cat #554067) […] Bioscience, San Jose, Calif., USA) was used for detecting the biotin-conjugated aptamers by flow cytometry. Other cell targeting aptamer specific for Ramos cells (28) was used for negative control. […]

The next data set relates to TUBO-derived tumors. Description: Syngeneic TUBO breast tumor model in BALB/c mice. Format: in vivo, mouse. The conditions noted are these: for tumor size / growth, monotherapy: chimera 670 pmol/20 g 5 daily injections, 5-FU 50 mg/kg 3 times. The protocol:
BALB/c mice bearing TUBO tumors were treated intravenously with miR-26a chimera (670 pmol/20 g) daily for 5 days. At days 2, 3, and 4, 50 mg/kg 5-FU was intravenously injected. Peripheral blood was collected 5 and 10 days after the initial 5-FU treatment. FIG. 9A is a series of graphs showing the numbers of WBC, RBC, and PLT 5 days after 5-FU treatment. FIG. 9B is a series of graphs showing the numbers of WBC, RBC, and PLT 10 days after 5-FU treatment. Data (mean+s.d.) were pooled from two experiments, involving a total of 6 mice per group. *, P<0.05, **, P<0.01. Xenograft model were generated 8-weeks old female immune-deficient NOD-scid IL2Rgamma^null (NSG™, Jackson Laboratories, Bar Harbar, Me., USA) using human breast cancer cell line. Syngeneic TUBO tumors were established in 8-weeks old female BALB/c mice (from Charles River Animal Facility, Frederick, Md., USA). These tumor-bearing mice were randomly assigned to each treatment group. Eight-week old male C57BL/6 mice and C57BL/6 ly5.2 mice (from Charles River Animal Facility, Frederick, Md., USA) were used for bone marrow transplantation assay. The mouse groups assigned for each treatment were not blinded. No statistical methods were used to pre-determined sample size for the analysis of mouse experiments. All the mice were maintained in the Research Animal Facility at Children's National Institute, Children's National Medical Center. The committee on the Use and Care of Animal at Children's National Institute approved all procedures involving experimental animals. For xenograft models, the NSG mice and BALB/c mice were subcutaneously injected with 2×10^6 viable MDA-MB-231 cells and TUBO cells in their right hind limbs, respectively. After the tumor grew to 1 cm in diameter, mice were randomly divided into the groups for each treatment. For no treatment control, 100 μl saline with 1% mouse serum was intravenously injected through tail vein. […] Tumor sizes were measured in two dimensions every 3 days. Tumor volume (V) was calculated using the following formula: V=(½) S^2×L (S. the shortest dimension; L, the longest dimension). […] For chimera treatment in normal mice, C57BL/6 mice were treated with miR-26a chimera (670 pmol/20 g) everyday for 3 days by intravenous injection. […] Peripheral bloods were collected at day 5 and day 10 after the 5-FU treatment. Complete blood counts were measured by Hemavet 950FS (Drew Scientific, Miami Lakes, Fla., USA).

“Also recorded” adds a separate entry of the source.

This note sets out measurements from patent US20200171068A1, “COMPOSITIONS COMPRISING APTAMERS AND NUCLEIC ACID PAYLOADS AND METHODS OF USING THE SAME” (Children's National Medical Center, priority 2017, published 2020).

As to `O=c1[nH]cc(F)c(=O)[nH]1` [5-FU, 5-fluorouracil, reference compound], the “reduction in the LSK population” value in the data set with hematopoiesis (C57BL/6, mouse, in vivo, 5 days) is listed as approximately 10 fold. Further, in the data set on hematopoiesis (mouse, in vivo), the “Bak1 expression in LSK cells” value was “massively induced” and the “percent of apoptotic (Annexin V+) LSK” value is “massively increased”. Moreover, in the data set on TUBO-derived tumors (TUBO-tumor bearing mice, 5-FU 50 mg/kg x3), the “leukocytes and thrombocytes after 5-FU” value was “significant leukopenia and thrombocytopenia”. The “tumor size / growth, monotherapy” value in the data set on TUBO-derived tumors was “growth retardation”.

B1: miR-26a chimera: mouse c-Kit DNA aptamer-C3-passenger RNA, passenger RNA-TEG-cholesterol and miR-26a-5p guide strand annealed (SEQ ID NO:6/7, 8, 9) (nucleic acid)
chain 1: GCTCAACGCGGGACGGCTCTCCCATTGAC
chain 2: CCUAUUCUGG
chain 3: GUUACUUGCACG
guide: UUCAAGUAAUCCAGGAUAGGCU
modifications: chemistry not fully specified
Regarding B1, in the data set with hematopoiesis (670 pmol/20 g chimera i.v. daily for 3 days, 150 mg/kg 5-FU on day 2), the “5-FU-induced myelosuppression (leukocyte counts, bone marrow cellularity)” value is “significantly ameliorated myelosuppression”. Moreover, the “5-FU-induced myelosuppression (WBC, RBC, PLT), chimera mixed with 5-FU” value with hematopoiesis (150 mg/kg 5-FU with 2 nmol/20 g chimera i.v. at same time, 5 and 10 days) was “protects mice against 5-FU-induced myelosuppression”. Besides, the “prevention of 5-FU-induced reduction in the LSK population” value in the data set on hematopoiesis (5 days after 5-FU, chimera 670 pmol/20 g daily for 3 days) is “largely prevented”. Further, in the data set with hematopoiesis (5 days after 5-FU, chimera treatment), the “protection of LSK from 5-FU-induced apoptosis” value is given as “specifically protected”. For the same molecule, the “5-FU-induced Bak elevation in LSK cells” value in the data set with hematopoiesis (mouse, in vivo) is “significantly diminished”. In addition, the “tumor growth, 5-FU combined with chimera” value in the data set on TUBO-derived tumors (5-FU plus miR-26a chimera) is given as “most effective growth retardation”. Further, the “number of leukocytes (WBC) and thrombocytes (PLT), combination with 5-FU” value in the data set on TUBO-derived tumors (TUBO-tumor bearing mice, 5 days after 5-FU) was “nearly doubled”. The “tumor size / growth, monotherapy” value with TUBO-derived tumors is “significant decrease of tumor size; also recorded: more effective than 5-FU treatment”. In addition, in the data set with TUBO-derived tumors (chimera daily for 5 days, 5-FU at days 2, 3, 4), the “5-FU-induced leukopenia / myelosuppression in tumor-bearing mice” value is on record as “ameliorates 5-FU induced myelosuppression; also recorded: largely prevented leukopenia”.
